Laboratory results published in patent US20230265179A1 (TWIST BIOSCIENCE, published 2023).
Substitutions are numbered along the chain they refer to.

B1: IL1RL1-270 (antibody, V domains shown)
VH: EVQLLESGGGLVQPGGSLRLSCAASGFTFSRYFMGWVRQAPGKGLEWVSGITRSGSTNYRDSVKGRFTISRDNSKNTLYLQMNSLRAEDTAVYYCAKGPGTRGDYWGQGTLVTVSS
VL: DIQMTQSPSSLSASVGDRVTITCRASQPIGPDLLWYQQKPGKAPKLLIYGASRLQRGVPSRFSGSGSGTDFTLTISSLQPEDFATYYCASRNGWNHVVFGQGTKVEIK
notes: IgG2
B2: IL1RL1-3 (Fc fusion, not shown: a dimerising Fc or GST)
VHH: EVQLVESGGGLVQPGGSLRLSCAASGRTFSMGWFRQAPGKEREWVSSIGIAGTPTFYADSVKGRFTISADNSKNTAYLQMNSLKPEDTAVYYCASTDDYGVDWGQGTLVTVSS
B3: IL1RL1-269 (antibody, V domains shown)
VH: EVQLLESGGGLVQPGGSLRLSCAASGFTFDRYRMMWVRQAPGKGLEWVSAITGSGGSTYYADSVKGRFTISRDNSKNTLYLQMNSLRAEDTAVYYCAKGLRRFDYWGQGTLVTVSS
VL: DIQMTQSPSSLSASVGDRVTITCRASQSVDRYFNWYQQKPGKAPKLLIYGKNIRPSGVPSRFSGSGSGTDFTLTISSLQPEDFATYYCGQSYRYPLTFGQGTKVEIK
notes: IgG2
B4: IL1RL1-86 (Fc fusion, not shown: a dimerising Fc or GST)
VHH: EVQLVESGGGLVQPGGSLRLSCAASGGTFSTYAMGWFRQAPGKEREWVASISTSGSTITPYADSVKGRFTISADNSKNTAYLQMNSLKPEDTAVYYCAAIAYEEGVYRWDWGQGTLVTVSS
notes: VHH-Fc on IgG2 Fc
B5: IL1RL1-18 (Fc fusion, not shown: a dimerising Fc or GST)
VHH: B4 VHH with G27V, F29L, S30D, T31L, Y102H
notes: VHH-Fc on IgG2 Fc
B6: IL1RL1-81 (Fc fusion, not shown: a dimerising Fc or GST)
VHH: B4 VHH with G27V, F29L, S30D, T31L
notes: VHH-Fc on IgG2 Fc
B7: IL1RL1-52 (Fc fusion, not shown: a dimerising Fc or GST)
VHH: B4 VHH with F29I
notes: VHH-Fc on IgG2 Fc
B8: IL1RL1-82 (Fc fusion, not shown: a dimerising Fc or GST)
VHH: B4 VHH with G27R, Y32L
notes: VHH-Fc on IgG2 Fc
B9: IL1RL1-2 (Fc fusion, not shown: a dimerising Fc or GST)
VHH: B4 VHH with T31A
notes: VHH-Fc on IgG2 Fc
B10: IL1RL1-14 (Fc fusion, not shown: a dimerising Fc or GST)
VHH: EVQLVESGGGLVQPGGSLRLSCAASGDISSIVAMGWFRQAPGKEREWVSSIDTGGGSNIVYADSVKGRFTISADNSKNTAYLQMNSLKPEDTAVYYCAAGLLDVQYVRQAAGYSWGQGTLVTVSS
notes: VHH-Fc on IgG2 Fc
B11: IL1RL1-7 (Fc fusion, not shown: a dimerising Fc or GST)
VHH: EVQLVESGGGLVQPGGSLRLSCAASGRTSNIYAMGWFRQAPGKEREPVASITPGGRFPAYADSVKGRFTISADNSKNTAYLQMNSLKPEDTAVYYCSTLYYSGLDPVDYWGQGTLVTVSS
notes: VHH-Fc on IgG2 Fc
B12: IL1RL1-16 (Fc fusion, not shown: a dimerising Fc or GST)
VHH: EVQLVESGGGLVQPGGSLRLSCAASGFSLDYYGMGWFRQAPGKEREGVATINWSGATSYADSVKGRFTISADNSKNTAYLQMNSLKPEDTAVYYCAIPGVWGQGTLVTVSS
notes: VHH-Fc on IgG2 Fc
B13: IL1RL1-6 (Fc fusion, not shown: a dimerising Fc or GST)
VHH: EVQLVESGGGLVQPGGSLRLSCAASGRTISTYGMGWFRQAPGKEREWVSGINRDGSTYYADRVKGRFTISADNSKNTAYLQMNSLKPEDTAVYYCALRRLSPPPLLDWGQGTLVTVSS
notes: VHH-Fc on IgG2 Fc
B14: IL1RL1-1 (Fc fusion, not shown: a dimerising Fc or GST)
VHH: EVQLVESGGGLVQPGGSLRLSCAASGFTLDAWPMSWFRQAPGKEREVVAVIYTSDGSTYYADSVKGRFTISADNSKNTAYLQMNSLKPEDTAVYYCAASKWYGGFGDTDIEWGQGTLVTVSS
notes: VHH-Fc on IgG2 Fc
B15: IL1RL1-10 (Fc fusion, not shown: a dimerising Fc or GST)
VHH: EVQLVESGGGLVQPGGSLRLSCAASGRTSNIYAMGWFRQAPGKEREWVASISTSGSTITPYADSVKGRFTISADNSKNTAYLQMNSLKPEDTAVYYCAAVYVSTWGNGYDWGQGTLVTVSS
notes: VHH-Fc on IgG2 Fc
B16: IL1RL1-5 (Fc fusion, not shown: a dimerising Fc or GST)
VHH: EVQLVESGGGLVQPGGSLRLSCAASGRTFSSIVMGWFRQAPGKEREMVAVIIDSRTTKYADSVKGRFTISADNSKNTAYLQMNSLKPEDTAVYYCAAVGGATTVTASEWDWGQGTLVTVSS
notes: VHH-Fc on IgG2 Fc
B17: IL1RL1-4 (Fc fusion, not shown: a dimerising Fc or GST)
VHH: B16 VHH with R27N, T28A, S30R, I32T, M47F
notes: VHH-Fc on IgG2 Fc
B18: IL1RL1-74 (Fc fusion, not shown: a dimerising Fc or GST)
VHH: B16 VHH with R27F, I32A, V33I, M47L
notes: VHH-Fc on IgG2 Fc
B19: IL1RL1-53 (Fc fusion, not shown: a dimerising Fc or GST)
VHH: B16 VHH with F29P, S31I, V33A, M47L
notes: VHH-Fc on IgG2 Fc
B20: IL1RL1-15 (Fc fusion, not shown: a dimerising Fc or GST)
VHH: EVQLVESGGGLVQPGGSLRLSCAASGRTYSISAMGWFRQAPGKEREWVSSIGIAGTPTFYADSVKGRFTISADNSKNTAYLQMNSLKPEDTAVYYCAAGVTGGAAYGWGQGTLVTVSS
notes: VHH-Fc on IgG2 Fc
B21: IL1RL1-262 (antibody, V domains shown)
VH: EVQLLESGGGLVQPGGSLRLSCAASGFTFSRYAMNWVRQAPGKGLEWVSAISGSGGNTYYADSVKGRFTISRDNSKNTLYLQMNSLRAEDTAVYYCARVWRNSLDYWGQGTLVTVSS
VL: DIQMTQSPSSLSASVGDRVTITCSGDRLGEKYVSWYQQKPGKAPKLLIYENNNRPSGVPSRFSGSGSGTDFTLTISSLQPEDFATYYCVARAVRGNPHVLFGQGTKVEIK
notes: IgG2
B22: IL1RL1-90 (Fc fusion, not shown: a dimerising Fc or GST)
VHH: EVQLVESGGGLVQPGGSLRLSCAASGVTLDLYAMGWFRQAPGKEREAVASISSSGSSIYYADSVKGRFTISADNSKNTAYLQMNSLKPEDTAVYYCAANYGGSVLYNWGQGTLVTVSS
notes: VHH-Fc on IgG2 Fc
B23: IL1RL1-8 (Fc fusion, not shown: a dimerising Fc or GST)
VHH: B22 VHH with V27R, L29S, D30N, L31I, A47F, I51L, S53A, S57L, I58T, Y59W
notes: VHH-Fc on IgG2 Fc
B24: IL1RL1-12 (Fc fusion, not shown: a dimerising Fc or GST)
VHH: EVQLVESGGGLVQPGGSLRLSCAASGSIFGLNAMGWFRQAPGKEREFVAAISRFGSTDYADSVKGRFTISADNSKNTAYLQMNSLKPEDTAVYYCARSYCTADSCYSSWFDPWGQGTLVTVSS
notes: VHH-Fc on IgG2 Fc
B25: IL1RL1-11 (Fc fusion, not shown: a dimerising Fc or GST)
VHH: EVQLVESGGGLVQPGGSLRLSCAASGRTFNWYAMGWFRQAPGKEREWVSSIGIAGTPTFYADSVKGRFTISADNSKNTAYLQMNSLKPEDTAVYYCAAVSSNSETFDWGQGTLVTVSS
notes: VHH-Fc on IgG2 Fc

These binders were tested against T1, IL1RL1 over-expressed on Expi293 cells (UniProt Q01638 19-556, limits assumed) (assay: flow cytometry, 100 nM antibody, over-expressing Expi293 / parent cells).
T1 construct: whole, on cells; Target of the flow cytometry MFI ratio (over-expressing cells over parent cells); also called cytokine over-expressing Expi293 cells
T1 sequence (looked up): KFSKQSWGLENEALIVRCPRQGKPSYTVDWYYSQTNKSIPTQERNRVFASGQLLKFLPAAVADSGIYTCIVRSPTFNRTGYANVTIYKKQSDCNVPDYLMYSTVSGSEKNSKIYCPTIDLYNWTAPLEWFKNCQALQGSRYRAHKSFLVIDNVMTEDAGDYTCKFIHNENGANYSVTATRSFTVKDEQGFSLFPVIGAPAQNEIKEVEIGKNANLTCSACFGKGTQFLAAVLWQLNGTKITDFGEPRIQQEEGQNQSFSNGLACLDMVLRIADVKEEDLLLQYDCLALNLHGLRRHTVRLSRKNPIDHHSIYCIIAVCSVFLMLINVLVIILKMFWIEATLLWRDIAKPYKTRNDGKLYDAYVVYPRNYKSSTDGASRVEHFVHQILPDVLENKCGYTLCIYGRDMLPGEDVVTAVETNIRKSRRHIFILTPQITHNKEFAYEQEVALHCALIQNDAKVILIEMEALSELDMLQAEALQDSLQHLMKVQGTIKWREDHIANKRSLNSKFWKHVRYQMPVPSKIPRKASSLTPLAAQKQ
Procedure: All incubations and washes were in buffer containing PBS+1% BSA. MFI Ratio is defined by the mean fluorescence intensity (MFI) of the cytokine over-expressing Expi293 cell over the Expi293 parent cell. […] EC50 was calculated in GraphPad Prism.

| Binder | 100 nM FACS (MFI Ratio) [MFI ratio] |
| --- | --- |
| B1 | 0.31 |
| B2 | 492 |
| B3 | 0.85 |
| B4 | 204 |
| B5 | 277 |
| B6 | 217 |
| B7 | 225 |
| B8 | 344 |
| B9 | 277 |
| B10 | 515 |
| B11 | 586 |
| B12 | 478 |
| B13 | 128 |
| B14 | 660 |
| B15 | 398 |
| B16 | 508 |
| B17 | 472 |
| B18 | 521 |
| B19 | 441 |
| B20 | 331 |
| B21 | 6.04 |
| B22 | 105 |
| B23 | 298 |
| B24 | 437 |
| B25 | 446 |

Each binder was assayed against T2, IL1RL1 (UniProt Q01638 19-328, limits assumed) (assay: SPR (Carterra LSA), antibody amine-coupled, 1:1 model;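 further: HC30M sensor chip at 25 °C in HBS-TE, analyte at rising concentrations in buffer containing 0.5 mg/mL BSA, 5 min association then 15 min dissociation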).
T2 construct: SPR analyte
T2 sequence (looked up): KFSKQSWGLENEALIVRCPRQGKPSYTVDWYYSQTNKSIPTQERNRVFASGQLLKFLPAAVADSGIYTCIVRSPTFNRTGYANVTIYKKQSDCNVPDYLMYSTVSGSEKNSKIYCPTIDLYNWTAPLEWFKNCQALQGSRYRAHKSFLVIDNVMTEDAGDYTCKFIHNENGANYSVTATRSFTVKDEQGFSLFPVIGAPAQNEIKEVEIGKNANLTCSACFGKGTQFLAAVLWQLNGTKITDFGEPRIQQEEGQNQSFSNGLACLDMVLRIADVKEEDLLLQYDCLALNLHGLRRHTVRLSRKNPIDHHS
Procedure: SPR experiments were performed on a Carterra LSA SPR biosensor equipped with a HC30M chip at 25° C. in HBS-TE. Antibodies were diluted to 10 μg/mL and amine-coupled to the sensor chip by EDC/NHS activation, followed by ethanolamine HCl quenching. Increasing concentrations of analyte were flowed over the sensor chip in HBS-TE with 0.5 mg/mL BSA with 5-minute association and 15-minute dissociation. Following each injection cycle the surface was regenerated with 2× 30-second injections of IgG elution buffer (Thermo). Data were analyzed in Carterra's Kinetics Tool software with 1:1 binding model.

| Binder | Kd [nM] | koff [s⁻¹] | kon [M⁻¹ s⁻¹] |
| --- | --- | --- | --- |
| B2 | ≤ 0.0524 | ≤ 1e-05 | 191000 |
| B4 | ≤ 0.0762 | ≤ 1e-05 | 131000 |
| B5 | 0.312 | 3.95e-05 | 126000 |
| B6 | 0.285 | 4.51e-05 | 159000 |
| B7 | 0.121 | 3.48e-05 | 288000 |
| B8 | ≤ 0.128 | ≤ 1e-05 | 78400 |
| B9 | 0.265 | 3.11e-05 | 118000 |
| B10 | ≤ 0.0744 | ≤ 1e-05 | 134000 |
| B11 | ≤ 0.0757 | ≤ 1e-05 | 132000 |
| B12 | 5.71 | 0.0011 | 193000 |
| B13 | 0.149 | 3.7e-05 | 248000 |
| B14 | 0.584 | 0.000101 | 172000 |
| B15 | 2.02 | 0.000241 | 119000 |
| B16 | 0.846 | 0.000162 | 191000 |
| B17 | ≤ 0.0574 | ≤ 1e-05 | 174000 |
| B18 | ≤ 0.0505 | ≤ 1e-05 | 198000 |
| B19 | 0.927 | 0.000267 | 289000 |
| B20 | 3.23 | 0.00041 | 127000 |
| B22 | ≤ 0.078 | ≤ 1e-05 | 128000 |
| B23 | ≤ 0.166 | ≤ 1e-05 | 60300 |
| B24 | 4.08 | 0.000326 | 80100 |
| B25 | 12.9 | 0.000681 | 52800 |
